Experimental data reported in patent publication US20240124563A1.

Legend:
[1] = biological target: human MSLN-R3 protein on HEK293T cells (human) (UniProt Q13421); test: FACS, HEK293T-hMSLN R3 cells
[2] = biological target: monkey MSLN full-length protein on HEK293T cells (monkey); test: FACS, HEK293T-monkey-MSLN cells, antibody 100 nM
[3] = biological target: monkey MSLN full-length protein on HEK293T cells (monkey); test: FACS, HEK293T-monkey MSLN cells
[4] = biological target: monkey MSLN full-length protein on HEK293T cells (monkey); test: FACS, HEK293T-monkey-MSLN cells, antibody 0.0064 nM
[5] = biological target: monkey MSLN full-length protein on HEK293T cells (monkey); test: FACS, HEK293T-monkey-MSLN cells, antibody 4 nM
[6] = biological target: monkey MSLN full-length protein on HEK293T cells (monkey); test: FACS, HEK293T-monkey-MSLN cells, antibody 0.8 nM
[7] = biological target: monkey MSLN full-length protein on HEK293T cells (monkey); test: FACS, HEK293T-monkey-MSLN cells, antibody 20 nM
[8] = biological target: monkey MSLN full-length protein on HEK293T cells (monkey); test: FACS, HEK293T-monkey-MSLN cells, antibody 0.00128 nM
[9] = biological target: monkey MSLN full-length protein on HEK293T cells (monkey); test: FACS, HEK293T-monkey-MSLN cells, antibody 0.032 nM
[10] = biological target: monkey MSLN full-length protein on HEK293T cells (monkey); test: FACS, HEK293T-monkey-MSLN cells, antibody 0.16 nM

Chain of human MSLN-R3 protein on HEK293T cells (human) (Q13421 495-614, form in doubt): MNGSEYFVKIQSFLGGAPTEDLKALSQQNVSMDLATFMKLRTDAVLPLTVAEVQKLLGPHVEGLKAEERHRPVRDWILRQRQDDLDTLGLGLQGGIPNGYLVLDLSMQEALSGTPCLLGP

Binder | Mean Fluorescence Intensity of Cells [1] | FACS signal (MFI) [2] | EC50 [3] [nM] | Max MFI [3] | FACS signal (MFI) [4] | FACS signal (MFI) [5] | FACS signal (MFI) [6] | FACS signal (MFI) [7] | FACS signal (MFI) [8] | FACS signal (MFI) [9] | FACS signal (MFI) [10]
Tab106 (YP218, hIgG1) (antibody, V domains shown) VH: QQQLEESGGGLVKPEGSLTLTCKASGFDLGFYFYACWVRQAPGKGLEWIACIYTAGSGSTYYASWAKGRFTISKASSTTVTLQMTSLAAADTATYFCARSTANTRSTYYLNLWGPGTLVTVSS VL: DVVMTQTPASVSEPVGGTVTIKCQASQRISSYLSWYQQKPGQRPKLLIFGASTLASGVPSRFKGSGSGTEYTLTISDLECADAATYYCQSYAYFDSNNWHAFGGGTEVVVRT | 1690 | 3290 | 1.15 | 8640 | 100 | 2440 | 860 | 2660 | 90 | 142 | 313
Tab107 (YP3, hIgG1) (antibody, V domains shown) VH: QEQLVESGGGLVQPGASLTLTCTASGIDFSRYYMCWVRQAPGKGLEGIACIYIGGSGSTYYASWAKGRFTISKASSTTVTLQMTSLTAADTATYFCARGTNLNYIFRLWGPGTLVTVSS VL: DVVMTQTPSPVSAAVGGTVTIKCQASQSINNGLAWYQQKPGQPPRLLIYSASNLESGVPSRFKGSGSGTEFTLTISDLECDDAATYYCQCIWDGNSYVNAFGGGTEVVVRT | – | 3930 | – | – | 96 | 3140 | 918 | 3650 | 119 | 131 | 288
Tab020 (YP223, rabbitIgG1) (antibody, V domains shown) VH: QEQLEESGGDLVQPEGSLTLTCKASGLDFSSSYWICWVRQAPGKGLEWIGCRHTFTANTWSASWVNGRFTISRSTSLGTVDLKMTSLTAADTATYFCARDESNNDGWDFKLWGPGTLVTVSS VL: AYDMTQTPASVSAAVGGTVTIKCQASQSISNYLAWYQQKPGQPPKLLIYQASTLAPGVSSRFKGSGSGTEFTLTISGVECADAATYYCQQGYTSSNVENVFGGGTGVVVGD | – | 126 | – | – | 85 | 90 | 88 | 100 | 85 | 85 | 86
